Measured values as given in the supplement of paper PMC10126150.
± gives the standard deviation of the averaged measurements.

Tested on: ATP
Assay: switch fluorescence ratio, 500 uM ATP over buffer (Cy3 cluster intensity, sum of 5 cycles each) (fold (ratio)); higher = stronger signal-on switching upon ATP binding; sequences stand for … in TCGTCGGCAGCGTCAGATGTGTATAAGAGACAGTTTTTTTTTTTTTTTTTTTTTTTTT…TC
Details: aptamer strand: ATP DNA aptamer (quencher-CACCTGGGGGAGTATTGCGGAGGAAGG + anchor), 100 nM annealed; ATP concentration: 500 uM
Summary of the method: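 Clusters carrying Cy3-labelled switching strands on a modified Illumina MiSeq flow-cell were annealed to 100 nM quencher-labelled ATP aptamer and imaged in selection buffer. They were imaged again after 15 min with 500 uM ATP at 22 °C, over five buffer/ATP cycles with NaOH stripping and re-annealing in between. For each cluster, the fluorescence ratio is the summed Cy3 intensity of the target cycles divided by that of the buffer cycles, averaged per switch-domain sequence. Clusters outside 100-1000 RFU were left out.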
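Further: ATP exposure 15 min at 22 °C before imaging.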

Sequence | switch fluorescence ratio
TGGTCTATGC | 1.05 ± 0.012
TGGTCTTTTA | 0.9852 ± 0.0022
TGGTGAGGAG | 0.98 ± 0.013
TGGTGCAGGC | 0.702 ± 0.023
TGGTGCTTGG | 1.04 ± 0.013
TGGTGGCCCG | 1.04 ± 0.035
TGGTGGCTTA | 0.9827 ± 0.0025
TGGTGGCTTG | 0.991 ± 0.022
TGGTGGGAAT | 1.02 ± 0.011
TGGTGGGGAA | 0.974 ± 0.01
TGGTGGTTCG | 0.975 ± 0.061
TGGTGGTTGC | 0.96 ± 0.051
TGGTGTAAGT | 1.007 ± 0.0052
TGGTGTATGC | 1.03 ± 0.059
TGGTGTGTTT | 0.978 ± 0.035
TGGTTAAAAG | 0.977 ± 0.051
TGGTTAATCG | 0.9949 ± 0.0079
TGGTTACAAA | 0.997 ± 0.015
TGGTTACACG | 1.06 ± 0.046
TGGTTACCTA | 0.987 ± 0.039
TGGTTACGTT | 0.983 ± 0.018
TGGTTAGAAA | 1.04 ± 0.017
TGGTTAGTGG | 1 ± 0.02
TGGTTATTTT | 0.998 ± 0.036
TGGTTCCAAA | 0.971 ± 0.008

Sequence | switch fluorescence ratio
TGGTTCCAGT | 1.003 ± 0.0058
TGGTTCTGAC | 1.03 ± 0.038
TGGTTCTGTG | 1.0262 ± 0.00041
TGGTTGAGGG | 1.01 ± 0.013
TGGTTGAGGT | 0.963 ± 0.028
TGGTTGAGTA | 0.981 ± 0.017
TGGTTGATTG | 0.975 ± 0.047
TGGTTGCTCT | 0.9891 ± 0.008
TGGTTGGAGC | 0.997 ± 0.029
TGGTTGGATG | 1.003 ± 0.006
TGGTTGGCGG | 1.03 ± 0.062
TGGTTGGGAC | 0.9953 ± 0.0089
TGGTTGGGGC | 0.986 ± 0.023
TGGTTGTCGT | 1.01 ± 0.033
TGGTTGTTT | 0.9856 ± 0.0018
TGGTTGTTTG | 0.968 ± 0.035
TGGTTTAACA | 0.9924 ± 0.003
TGGTTTAGAG | 0.979 ± 0.024
TGGTTTAGGT | 0.995 ± 0.028
TGGTTTCA | 1.02 ± 0.041
TGGTTTCAGA | 0.984 ± 0.019
TGGTTTGATC | 1.01 ± 0.026
TGGTTTGGAG | 0.984 ± 0.057
TGGTTTGGCT | 1.03 ± 0.023
TGGTTTGGGT | 0.986 ± 0.026

Sequence | switch fluorescence ratio
TGTAAAGATT | 1.0093 ± 0.00041
TGTAAAGGAA | 0.992 ± 0.024
TGTAAATGGG | 0.984 ± 0.024
TGTAACGCTG | 0.974 ± 0.057
TGTAACTTCG | 1.001 ± 0.0082
TGTAAGAGAT | 1.01 ± 0.011
TGTAAGTTTC | 1.04 ± 0.073
TGTAATCAAA | 1 ± 0.022
TGTAATCTTC | 1.01 ± 0.016
TGTAATTGGG | 0.9881 ± 0.0015
TGTAATTTGA | 0.984 ± 0.021
TGTACGTAGG | 1.24 ± 0.21
TGTACGTGGC | 1.08 ± 0.086
TGTACTTCTT | 1.24 ± 0.3
TGTAGCAGGT | 1.155 ± 0.0025
TGTAGGAGGA | 1.01 ± 0.017
TGTAGGGCGA | 0.99 ± 0.034
TGTAGGGGCA | 0.99 ± 0.014
TGTAGGGGGA | 0.999 ± 0.052
TGTAGGGGTC | 1.01 ± 0.011
TGTAGGGTCA | 0.9819 ± 0.0023
TGTAGGTAAA | 0.997 ± 0.029
TGTAGGTGTT | 0.999 ± 0.077
TGTAGTAGGT | 1.004 ± 0.002
TGTAGTATCG | 1.016 ± 0.0045

Sequence | switch fluorescence ratio
TGTATAAGGT | 0.966 ± 0.023
TGTATGATGG | 1.02 ± 0.031
TGTATGGGGA | 0.9997 ± 0.004
TGTATGGGGG | 0.946 ± 0.038
TGTATGTGAG | 0.98 ± 0.054
TGTATTAGTA | 0.949 ± 0.0089
TGTATTGCGG | 1.02 ± 0.0071
TGTCAGGGGA | 1.018 ± 0.007
TGTCCGGGCT | 0.999 ± 0.028
TGTCCTGGCT | 1.02 ± 0.067
TGTCGACCG | 0.99 ± 0.014
TGTCGAGGGG | 0.981 ± 0.017
TGTCGGATCG | 1 ± 0.013
TGTCGGGCCT | 1.03 ± 0.042
TGTCGTGACA | 1.006 ± 0.0038
TGTCGTTCTT | 0.973 ± 0.013
TGTCGTTTAC | 1.05 ± 0.021
TGTCTTACCT | 1.147 ± 0.0093
TGTGAAGGTT | 0.986 ± 0.054
TGTGACGGGG | 1.02 ± 0.035
TGTGAGATTG | 1 ± 0.033
TGTGAGTTAG | 1 ± 0.025
TGTGAGTTGC | 0.949 ± 0.0069
TGTGATAGTG | 0.999 ± 0.053
TGTGATAGTT | 0.999 ± 0.015
